B1: LINE1-mini (parent)
chain: GGCAGAGCUCAACACAGCGUGGCAAAGUGGCUGUGGCUAGACUGCC

In this data set the parent is B1. Put plainly: self-cleavage, relative activity (ratio to wild type); higher = more cleavage; in vitro, sequencing; the parent is a self-cleaving ribozyme.
Consider GGCAGAGCUCAGCACAGCGUGGCAAAGUGGCUGUGGCUAAACUGCC [A12G G40A], for which the self-cleavage amounted to 0.06.

With GGCAGAGCUCAGCACAGCGUGGCAAAGAGGCUGUGGCUAGACUGCC [A12G U28A], the self-cleavage amounted to 0.04.

Turning to GGCAGAGCUCAGCACAGCGUGGCAAAGGGGCUGUGGCUAGACUGCC [A12G U28G], the self-cleavage is 0.01.

On to GGCAGAGCUCAGCACAGCGUGGCAAAGCGGCUGUGGCUAGACUGCC [A12G U28C], for which the self-cleavage was 0.02.

Turning to GGCAGAGCUCAGCACAGCGUGGCAAAGUUGCUGUGGCUAGACUGCC [A12G G29U], the self-cleavage turned out to be 0.02.

Consider GGCAGAGCUCAGCACAGCGUGGCAAAGUCGCUGUGGCUAGACUGCC [A12G G29C], for which the self-cleavage came out at 0.02.

Turning to GGCAGAGCUCAGCACAGCGUGGCAAAGUAGCUGUGGCUAGACUGCC [A12G G29A], the self-cleavage stood at 0.03.

For GGCAGAGCUCAGCACAGCGUGGCAAAGUGGCUGUGGCUAGACUGCG [A12G C46G], the self-cleavage was found to be 0.05.

In the case of GGCAGAGCUCAGCACAGCGUGGCAAAGUGGCUGUGGCUAGACUGCA [A12G C46A], the self-cleavage is 0.31.

Regarding GGCAGAGCUCAGCACAGCGUGGCAAAGUGGCUGUGGCUAGACUGCU [A12G C46U], the self-cleavage was 0.03.

As to GGCAGAGCUCAUCACAGUGUGGCAAAGUGGCUGUGGCUAGACUGCC [A12U C18U], the self-cleavage was determined as 0.53.

For GGCAGAGCUCAUCACAGGGUGGCAAAGUGGCUGUGGCUAGACUGCC [A12U C18G], the self-cleavage came to 0.17.

Regarding GGCAGAGCUCAUCACAGAGUGGCAAAGUGGCUGUGGCUAGACUGCC [A12U C18A], the self-cleavage worked out at 0.18.

Consider GGCAGAGCUCAGCACAGCGUGGCAAAGUGGCUGUGGCUAGACCGCC [A12G U43C], for which the self-cleavage is 0.03.

For the variant GGCAGAGCUCAGCACAGCGUGGCAAAGUGGCUGUGGCUAGACAGCC [A12G U43A], the self-cleavage is 0.12.

Consider GGCAGAGCUCAGCACAGCGUGGCAAAGUGGCUGUGGCUAGACGGCC [A12G U43G], for which the self-cleavage is 0.1.

Regarding GGCAGAGCUCAGCACAGCGGGGCAAAGUGGCUGUGGCUAGACUGCC [A12G U20G], the self-cleavage was 0.02.

On to GGCAGAGCUCAGCACAGCGAGGCAAAGUGGCUGUGGCUAGACUGCC [A12G U20A], for which the self-cleavage was 0.04.

On to GGCAGAGCUCAGCACAGCGCGGCAAAGUGGCUGUGGCUAGACUGCC [A12G U20C], for which the self-cleavage amounted to 0.08.

GGCAGAGCUCAGCACAGCGUGGCAAAGUGGCAGUGGCUAGACUGCC [A12G U32A]: the self-cleavage came to 0.15.

On to GGCAGAGCUCAGCACAGCGUGGCAAAGUGGCCGUGGCUAGACUGCC [A12G U32C], for which the self-cleavage is 0.14.

GGCAGAGCUCAGCACAGCGUGGCAAAGUGGCGGUGGCUAGACUGCC [A12G U32G]: the self-cleavage is 0.49.

As for GGCAGAGCUCAGCACAGCGUGGCAAAGUGGCUGCGGCUAGACUGCC [A12G U34C], the self-cleavage is 0.05.

As for GGCAGAGCUCAGCACAGCGUGGCAAAGUGGCUGGGGCUAGACUGCC [A12G U34G], the self-cleavage came to 0.02.

Regarding GGCAGAGCUCAGCACAGCGUGGCAAAGUGGCUGAGGCUAGACUGCC [A12G U34A], the self-cleavage turned out to be 0.03.

For GGCAGAGCUCAGCACAGCGUGGCAAAGUGUCUGUGGCUAGACUGCC [A12G G30U], the self-cleavage is 0.04.

For GGCAGAGCUCAGCACAGCGUGGCAAAGUGCCUGUGGCUAGACUGCC [A12G G30C], the self-cleavage turned out to be 0.08.

With GGCAGAGCUCAGCACAGCGUGGCAAAGUGACUGUGGCUAGACUGCC [A12G G30A], the self-cleavage was 0.03.

As for GGCAGAGCUCAUCACAGCGUGGCAAAGUGGCUGUGGCUAGACUGAC [A12U C45A], the self-cleavage worked out at 0.38.

In the case of GGCAGAGCUCAUCACAGCGUGGCAAAGUGGCUGUGGCUAGACUGGC [A12U C45G], the self-cleavage was determined as 0.08.

In the case of GGCAGAGCUCAUCACAGCGUGGCAAAGUGGCUGUGGCUAGACUGUC [A12U C45U], the self-cleavage came out at 0.27.

Turning to GGCAGAGCUCAGCACAGCGUGGCAAAGUGGCUGUGGCUAGACUUCC [A12G G44U], the self-cleavage worked out at 0.09.

As to GGCAGAGCUCAGCACAGCGUGGCAAAGUGGCUGUGGCUAGACUACC [A12G G44A], the self-cleavage came to 0.04.

For GGCAGAGCUCAGCACAGCGUGGCAAAGUGGCUGUGGCUAGACUCCC [A12G G44C], the self-cleavage worked out at 0.03.

With GGCAGAGCUCAGCACAGCGUAGCAAAGUGGCUGUGGCUAGACUGCC [A12G G21A], the self-cleavage was 0.05.

As to GGCAGAGCUCAGCACAGCGUCGCAAAGUGGCUGUGGCUAGACUGCC [A12G G21C], the self-cleavage came to 0.01.

As for GGCAGAGCUCAGCACAGCGUUGCAAAGUGGCUGUGGCUAGACUGCC [A12G G21U], the self-cleavage was 0.03.

In the case of GGCAGAGCUCAUCACAGCGUGGCAAAGUGGCUGUGGCUAGAGUGCC [A12U C42G], the self-cleavage came out at 0.04.

For GGCAGAGCUCAUCACAGCGUGGCAAAGUGGCUGUGGCUAGAAUGCC [A12U C42A], the self-cleavage stood at 0.06.

Take GGCAGAGCUCAUCACAGCGUGGCAAAGUGGCUGUGGCUAGAUUGCC [A12U C42U]: the self-cleavage was 0.13.

For the variant GGCAGAGCUCAUCACAGCGUGGCAAGGUGGCUGUGGCUAGACUGCC [A12U A26G], the self-cleavage worked out at 0.22.

As for GGCAGAGCUCAUCACAGCGUGGCAACGUGGCUGUGGCUAGACUGCC [A12U A26C], the self-cleavage was 0.16.

In the case of GGCAGAGCUCAUCACAGCGUGGCAAUGUGGCUGUGGCUAGACUGCC [A12U A26U], the self-cleavage amounted to 0.28.

Take GGCAGAGCUCAUCACAGCGUGGUAAAGUGGCUGUGGCUAGACUGCC [A12U C23U]: the self-cleavage is 0.34.

Regarding GGCAGAGCUCAUCACAGCGUGGAAAAGUGGCUGUGGCUAGACUGCC [A12U C23A], the self-cleavage was 0.27.

For the variant GGCAGAGCUCAUCACAGCGUGGGAAAGUGGCUGUGGCUAGACUGCC [A12U C23G], the self-cleavage is 0.26.

As to GGCAGAGCUCAUUACAGCGUGGCAAAGUGGCUGUGGCUAGACUGCC [A12U C13U], the self-cleavage amounted to 0.14.

Regarding GGCAGAGCUCAUGACAGCGUGGCAAAGUGGCUGUGGCUAGACUGCC [A12U C13G], the self-cleavage is 0.48.

As for GGCAGAGCUCAUAACAGCGUGGCAAAGUGGCUGUGGCUAGACUGCC [A12U C13A], the self-cleavage turned out to be 0.21.

For GGCAGAGCUCAGCACACCGUGGCAAAGUGGCUGUGGCUAGACUGCC [A12G G17C], the self-cleavage was found to be 0.05.

As for GGCAGAGCUCAGCACAACGUGGCAAAGUGGCUGUGGCUAGACUGCC [A12G G17A], the self-cleavage stood at 0.02.

For GGCAGAGCUCAGCACAUCGUGGCAAAGUGGCUGUGGCUAGACUGCC [A12G G17U], the self-cleavage was 0.05.

As to GGCAGAGCUCAGCACAGCGUGGCAAAGUGGCUGUGGCUAGACUGAC [A12G C45A], the self-cleavage was 0.1.

As to GGCAGAGCUCAGCACAGCGUGGCAAAGUGGCUGUGGCUAGACUGGC [A12G C45G], the self-cleavage worked out at 0.06.

Regarding GGCAGAGCUCAGCACAGCGUGGCAAAGUGGCUGUGGCUAGACUGUC [A12G C45U], the self-cleavage was found to be 0.05.

As to GGCAGAGCUCAUCACAGCGUGGCAAAGUGGCUGUGGCUAGACUGCC [A12U], the self-cleavage came out at 0.28.

For the origin of these results see the RNAGym collection of RNA variant scans (doi:10.7554/elife.90254).
